Results on 36 sequences are retold here after the supplement of paper PMC10567573.

± gives the standard deviation.

The series can be described thus: protein stability index of a GFP-peptide fusion (GPS, HEK-293T) (PSI 1-6); higher = more stable. Particulars: c terminus: a fixed tail appended.
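Note: 24-mer peptide tiles fused after GFP, lentivirally expressed, FACS-sorted into six equal bins by GFP/DsRed ratio, decoded by Illumina sequencing, PSI is the read-weighted mean bin number.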

KEKCVSLPDCCHGSELRDFPGRPM [DLC1] had a protein stability index (treatment: DMSO) of 3.82 ± 0.33 and a protein stability index (treatment: MLN4924 1 uM, 8 h) of 3.76 ± 0.4.

As for KEMSKVWNDLRPKLSCLFAGPHST [SNX8], the protein stability index by setting is: (treatment: DMSO) 2.63 ± 0.7; (treatment: MLN4924 1 uM, 8 h) 2.79 ± 0.59.

Consider KEQLSNDRETQEGKPPTAHLDRTS [ELOA2], for which the protein stability index was found to be 5.56 ± 0.32 (treatment: DMSO) and 5.59 ± 0.16 (treatment: MLN4924 1 uM, 8 h).

Take KESRAQTLQNGRRHIHHLGNQLQL [BRF1]: the protein stability index is 3.55 ± 0.15 (treatment: DMSO) and 3.63 ± 0.31 (treatment: MLN4924 1 uM, 8 h).

With KESSPSGSKSQRYSGAYGASVSDE [CHCHD3], the protein stability index reads like this: (treatment: DMSO) 5.31 ± 0.5; (treatment: MLN4924 1 uM, 8 h) 4.99 ± 0.12.

As for KFLAKVNGSDPRSFPLWYEEALKD [MAGEA10], the protein stability index is 2.62 ± 0.39 (treatment: DMSO) and 3.06 ± 0.4 (treatment: MLN4924 1 uM, 8 h).

Regarding KHSTIFDVGENLTVPDEFTVEERQ [SLC25A25], the protein stability index reads like this: (treatment: DMSO) 5.07 ± 0.22; (treatment: MLN4924 1 uM, 8 h) 4.98 ± 0.22.

KIIQLGLTFMNEQGEYPPGTSTWQ [CNOT7] had a protein stability index (treatment: DMSO) of 2.23 ± 0.2 and a protein stability index (treatment: MLN4924 1 uM, 8 h) of 2.19 ± 0.18.

KILEVVGRYSVHNAGISFSVKKQG [MLH1]: the protein stability index by setting is: (treatment: DMSO) 2.19 ± 0.93; (treatment: MLN4924 1 uM, 8 h) 1.91 ± 0.51.

Take KILRSMSRKVTTNKLLLSIIILLE [VTI1B]: the protein stability index by setting is: (treatment: DMSO) 2.48 ± 0.53; (treatment: MLN4924 1 uM, 8 h) 2.32 ± 0.42.

Sequence KIRRGQFCIPEHISPKARCLIRSL [TRIB1] registered a protein stability index (treatment: DMSO) of 2.29 ± 0.48 and a protein stability index (treatment: MLN4924 1 uM, 8 h) of 2.29 ± 0.4.

KKAYDYFQAKKIPIVSSLADPLDT [PDZK1]: the protein stability index runs as follows: (treatment: DMSO) 3.64 ± 0.23; (treatment: MLN4924 1 uM, 8 h) 3.88 ± 0.35.

In the case of KKEEPEPETEAVSSSQEIPTMPQP [ZMYND11], the protein stability index came to 5.45 ± 0.47 (treatment: DMSO) and 5.55 ± 0.23 (treatment: MLN4924 1 uM, 8 h).

Take KKKSILMKQLQQQQHSDKTSLQGL [ISL2]: the protein stability index came to 3.86 ± 0.2 (treatment: DMSO) and 4.04 ± 0.27 (treatment: MLN4924 1 uM, 8 h).

For KKLTGGANWQPKVAPATWSAGVPP [SNAP91], the protein stability index by setting is: (treatment: DMSO) 3.27 ± 0.18; (treatment: MLN4924 1 uM, 8 h) 3.34 ± 0.14.

Take KLQDVFEMRFAKMPDEPVEAPALP [BRD3]: the protein stability index turned out to be 3.49 ± 0.23 (treatment: DMSO) and 3.62 ± 0.34 (treatment: MLN4924 1 uM, 8 h).

Take KMAAFHGAGLKRYLLTVMAAAAKA [ADAMTS4]: the protein stability index runs as follows: (treatment: DMSO) 2.43 ± 0.21; (treatment: MLN4924 1 uM, 8 h) 2.58 ± 0.5.

For the sequence KMGLQERSETFLEVWGNALLRPPV [DNAAF3], the protein stability index is, setting by setting: (treatment: DMSO) 2.52 ± 0.55; (treatment: MLN4924 1 uM, 8 h) 2.49 ± 0.34.

KMNPKLKTLLAIGGWNFSTQKFTD [CHIT1] displayed a protein stability index (treatment: DMSO) of 2.37 ± 0.11 and a protein stability index (treatment: MLN4924 1 uM, 8 h) of 2.3 ± 0.39.

Regarding KMREFTKTIKRPFGVKYNPYTRSI [TPH1], the protein stability index amounted to 2.25 ± 0.21 (treatment: DMSO) and 2.31 ± 0.17 (treatment: MLN4924 1 uM, 8 h).

As to KNWWVRGILTLAMIAFFFIIIYLG [CDS2], the protein stability index is 3.07 ± 0.36 (treatment: DMSO) and 2.85 ± 0.52 (treatment: MLN4924 1 uM, 8 h).

KPDKAVSIIECDMNVDFDAPLGYK [UFD1]: the protein stability index (treatment: DMSO) stood at 3.94 ± 0.34 and the protein stability index (treatment: MLN4924 1 uM, 8 h) is 4.21 ± 0.2.

For KPDSVGLPPCAVRNLQDLARIYIR [PCMTD1], the protein stability index by setting is: (treatment: DMSO) 2.94 ± 0.085; (treatment: MLN4924 1 uM, 8 h) 2.85 ± 0.1.

For the sequence KPEDTAEDLTAKRKRMKMDKTCSK [FAM9B], the protein stability index was 5.3 ± 0.2 (treatment: DMSO) and 5.43 ± 0.11 (treatment: MLN4924 1 uM, 8 h).

As to KPENISLRNKLRELCVKLMFLHPV [SMG5], the protein stability index by setting is: (treatment: DMSO) 2.9 ± 0.52; (treatment: MLN4924 1 uM, 8 h) 3.06 ± 0.34.

In the case of KPGFLAPRDLPKHTPLISKSQSLR [RASAL3], the protein stability index runs as follows: (treatment: DMSO) 3.61 ± 0.2; (treatment: MLN4924 1 uM, 8 h) 3.8 ± 0.47.

With KPHRCHNCGKSFSRLTALTLHQRT [ZNF449], the protein stability index reads like this: (treatment: DMSO) 2.46 ± 0.096; (treatment: MLN4924 1 uM, 8 h) 2.78 ± 0.76.

Turning to KPIHTTILNPHVHVIGEDAACIAY [CAMK2B], the protein stability index is, setting by setting: (treatment: DMSO) 2.77 ± 0.26; (treatment: MLN4924 1 uM, 8 h) 2.98 ± 0.18.

For the sequence KPPETSVPVVTPTASTAPPVPATA [SNAP91], the protein stability index is, setting by setting: (treatment: DMSO) 5.34 ± 0.35; (treatment: MLN4924 1 uM, 8 h) 5.37 ± 0.18.

As to KQGELPREVRRAQARLLNPSATRA [NOP53], the protein stability index is 4.42 ± 0.46 (treatment: DMSO) and 4.47 ± 0.19 (treatment: MLN4924 1 uM, 8 h).

For KQGSMNFRFIPVLFPNAKKEHVPT [TRAF3IP2], the protein stability index was 2.41 ± 0.41 (treatment: DMSO) and 2.48 ± 0.49 (treatment: MLN4924 1 uM, 8 h).

On to KRLREEEAARLFKQIVSAVAHCHQ [TRIB1], for which the protein stability index by setting is: (treatment: DMSO) 2.4 ± 0.36; (treatment: MLN4924 1 uM, 8 h) 2.4 ± 2.

Turning to KRPYAKELETVDFKDKLEETKGQI [SERPINB5], the protein stability index worked out at 5.12 ± 0.21 (treatment: DMSO) and 5.23 ± 0.14 (treatment: MLN4924 1 uM, 8 h).

KRRKDSEEEAASPEGKRVPKRLRC [FANCE] came in with a protein stability index (treatment: DMSO) of 5.08 ± 0.3 and a protein stability index (treatment: MLN4924 1 uM, 8 h) of 5.12 ± 0.26.

As for KSFILDFMLRYLYSQKESGHSNWL [ATL3], the protein stability index was found to be 2.88 ± 0.33 (treatment: DMSO) and 3.07 ± 0.48 (treatment: MLN4924 1 uM, 8 h).

For KSQSLRSVRRSESWARPRPDEERP [RASAL3], the protein stability index worked out at 4.89 ± 0.36 (treatment: DMSO) and 4.99 ± 0.12 (treatment: MLN4924 1 uM, 8 h).
